This note sets out measurements from the DeepSol protein solubility set.

This data set is described as follows: soluble on expression in E. coli; label from the status in PepcDB or PDB records.
Consider “MGHHHHHHSHVSRHYCPTCCYPMNACLCSHLQQIKPQTQLLVLQHPSEVEHKKNSVRVLSLVIPDTQVYVGESEADFAALRAQLSRCQRPIYLVYPSEQSASVESQSICVDCVLLLIDGTWRKAFKILQLNPWLAQFPAVHLAQGYASRYKIRKSSRSDSLSTLEASAYMLKALDDGLDVSPLLAAFDAMVAMRLQAMPAEVRLRYD”, for which the “soluble on expression in E. coli” value was “not soluble”.

“MKWRCLIYIETRGDILFMTKWFNVGKIVNTHGVRGEIRVISRTDFPEERYKVGNTLYISNEKGTDYLPVKVTSHRQHKTFDLLTFEGYNNVDEVEKFKGSLIKVPEEQLGELAEGEYYYHEIIGCSVVTEEGEALGTIKEILSPGANDVWVIKRPKGQDLLIPYIDDVVLQVNIENKLVTIHVMEGLLLEHHHHHH”: the “soluble on expression in E. coli” value is reported as “soluble”.

As for “SVPLVAVVSGPRAQLFACLLRLGTQQVGPLQLHTGASHAARNHYEVLVLGGGSGGITMAARMKRKVGAENVAIVEPSERHFYQPIWTLVGAGAKQLSSSGRPTASVIPSGVEWIKARVTELNPDKNCIHTDDDEKISYRYLIIALGIQLDYEKIKGLPEGFAHPKIGSNYSVKTVEKTWKALQDFKEGNAIFTFPNTPVKCAGAPQKIMYLSEAYFRKTGKRSKANIIFNTSLGAIFGVKKYADALQEIIQERNLTVNYKKNLIEVRADKQEAVFENLDKPGETQVISYEMLHVTPPMSPPDVLKTSPVADAAGWVDVDKETLQHRRYPNVFGIGDCTNLPTSKTAAAVAAQSGILDRTISVIMKNQTPTKKYDGYTSCPLVTGYNRVILAEFDYKAEPLETFPFDQSKERLSMYLMKADLMPFLYWNMMLRGYWGGPAFLRKLFHLGMS”, the “soluble on expression in E. coli” value is listed as “soluble”.

Consider “MTIRSYKNLNLVRANIETESRQFIENKNYSIQSIGPMPGSRAGLRVVFTRPGVNLATVDIFYNGDGSTTIQYLTGANRSLGQELADHLFETINPAEFEQVNMVLQGFVETSVLPVLELSADESHIEFREHSRNAHTVVWKIISTSYQDELTVSLHITTGKLQIQGRPLSCYRVFTFNLAALLDLQGLEKVLIRQEDGKANIVQQEVARTYLQTVMADAYPHLHVTAEKLLVSGLCVKLAAPDLPDYCMLLYPELRTIEGVLKSKMSGLGMPVQQPAGFGTYFDKPAAHYILKPQFAATLRPEQINIISTAYTFFNVERHSLFHMETVVDASRMISDMARLMGKATRAWGIIKDLYIV”, for which the “soluble on expression in E. coli” value is reported as “soluble”.

For the sequence “MINITSMRDSFGDWAEKFLKSKEADGVSVSQLNSYKNYCRNHLSPLYMKSLSEILPADIQSIINETKLAKNTLKAIRNTASQIFRLAIENRAIDFNPADYVRIPKIAPEFHRDALEHHHHHH”, the “soluble on expression in E. coli” value is given as “soluble”.

In the case of “AHHHHHHGSIRASKRALSVEYAIRDVVLPARELEKKGIKVIRLNIGDPVKFDFQPPEHMKEAYCKAIKEGHNYYGDSEGLPELRKAIVEREKRKNGVDITPDDVRVTAAVTEALQLIFGALLDPGDEILVPGPSYPPYTGLVKFYGGKPVEYRTIEEEDWQPDIDDIRKKITDRTKAIAVINPNNPTGALYDKKTLEEILNIAGEYEIPVISDEIYDLMTYEGEHISPGSLTKDVPVIVMNGLSKVYFATGWRLGYMYFVDPENKLSEVREAIDRLARIRLCPNTPAQFAAIAGLTGPMDYLKEYMKKLKERRDYIYKRLNEIPGISTTKPQGAFYIFPKIEVGPWKNDKEFVLDVLHNAHVLFVHGSGFGEYGAGHFRAVFLPPIEILEEAMDRFEKFMKERLKE”, the “soluble on expression in E. coli” value is listed as “soluble”.

For the sequence “IEKSTQYMAKRRIGALISVARDTGMDDYIETGIPLNAKISSQLLINIFIPNTPLHDGAVIIKGNEIASAASYLPLSDSPFLSKELGTRHRAALGISEVTDSITIVVSEETGGISLTKGGELF”, the “soluble on expression in E. coli” value was “not soluble”.

In the case of “SGKMVSVINTVDTSHEDMIHDAQMDYYGTRLATCSSDRSVKIFDVRNGGQILIADLRGHEGPVWQVAWAHPMYGNILASCSYDRKVIIWREENGTWEKSHEHAGHDSSVNSVCWAPHDYGLILACGSSDGAISLLTYTGEGQWEVKKINNAHTIGCNAVSWAPAVVPGSLIDHPSGQKPNYIKRFASGGCDNLIKLWKEEEDGQWKEEQKLEAHSDWVRDVAWAPSIGLPTSTIASCSQDGRVFIWTCDDASSNTWSPKLLHKFNDVVWHVSWSITANILAVSGGDNKVTLWKESVDGQWVCISDVNKGQGSVSASVTEGQQNEQ”, the “soluble on expression in E. coli” value is reported as “soluble”.

Consider “NPQTSVSNTGKEADATKNQTSKADQVSAPYEGTGKTSKSLYGGQTELEKNIQTLQPSSIIGTDERTRISSTTSFPYRATVQLSIKYPNTSSTYGCTGFLVNPNTVVTAGHCVYSQDHGWASTITAAPGRNGSSYPYGTYSGTMFYSVKGWTESKDTNYDYGAIKLNGSPGNTVGWYGYRTTNSSSPVGLSSSVTGFPCDKTFGTMWSDTKPIRSAETYKLTYTTDTYGCQSGSPVYRNYSDTGQTAIAIHTNGGSSYNLGTRVTNDVFNNIQYWANQ”, for which the “soluble on expression in E. coli” value is “not soluble”.

With “MKHHHHHPMVPSYDSFDSEDYPAALPNHKPKGTFKDYVRDRADLNKDKPVIPAAALAGYTGSGPIQLWQFLLELLTDKSSQSFISWTGDGWEFKLSDPDEVARRWGKRKNKPKMNYEKLSRGLRYYYDKNIIHKTAGKRYVYRFVSDLQSLLGYTPEELHAMLDVKPDADE”, the “soluble on expression in E. coli” value is recorded as “soluble”.

With “MGSDKIHHHHHHMPQSDIFGKAYHEATKHSYLSVQLDPNYLDASTQPSAFKFYPKFYRRVKLNLDNPIHSFIWLTSAVTFEKVYNNVAYKLRVNPSAGALYPTEMYVQIRGMPKIVDGIYHLEVENNCLTLIYELIDDGLESYVIPTKCITGFIFLISSVYYRSSWKYKQRSLRYCLLDSGHHLGAVAASAYLHSRDIQLIFDFDKLALNTDLGFENKEFITGCAISGEIHEKQIRKLRLKVPFVCGTDYFEANQFIEDSYQATSVQPSHQQQLQQPCFDFEQDKFYQTVWNRRSIRRFRKEFISQEHYLYVLQLLQQPIPTESGEEIEIYSVIHRVEGMKSGLYKGANLVKAGDFSEHTGYLCVNQALARDCAVVLFFVSKYTSYQTAMQIAGFLGQRIYLGSNYVGIQCSGIGAFYDDETQEFLETHKDVLYATAIGT”, the “soluble on expression in E. coli” value is “not soluble”.

As for “MSLQGPNPIITVYSTQDYPILHAELASQVYLMDQVEQWENMISQRLSANPSVAAQQASQIFQSAEWKQSEEQLKRSYQGLISGWQNGIKKVPAVLFQYPGKEDSVIYGETNIAQALSLWQREITKEGTREGHHHHHH”, the “soluble on expression in E. coli” value is “soluble”.

Regarding “MQGSVTEFLKPRLVDIEQISTTHAKVTLEPLERGFGHTLGNALRRILLSSMPGCAVTEVEIEGVLHEYSTKEGVQEDILEILLNLKGLAVRVAEGKDEVFITLNKSGSGPVVAGDITHDGDVEIVNPEHVICHLTSDNAAIAMRIKVERGRGYVPASARIHTEEDERPIGRLLVDATFSPVDKIAYSVEAARVEQRTDLDKLVIDMETNGTLEPEEAIRRAATILAEQLDAFVDLRDVRVPEEKEEKPEFDPILLRPVDDLELTVRSANCLKAEAIHYIGDLVQRTEVELLKTPNLGKKSLTEIKDVLASRGLSLGMRLENWPPASIAED”, the “soluble on expression in E. coli” value is given as “soluble”.

For “MAHHHHHHMRKVKKNKQVRNMLKSLTERVDTDDGENEYARLTQTPVVKMNLSKVKLKTSLQSVLVEPYTEKVKDFVAKTNYEISMEKTLLDEIKNANQNMDRIGDVLSARGGKQRKTRDNHHIMGRYFHYLRDKNEDFGLSFFPVYKTFKSNFSHFSDNLNSSLYPHELLEMGSMSSGNFLKNSSKRISFPERGDS”, the “soluble on expression in E. coli” value was “not soluble”.

Take “MSLNKNEKVKIAYVGIGNRGQQIIEDFARTGMVEVVALCDVDMGAKHTQKVIGMYPKAKQFRDFRQMFDKAGKEFDAVAIATPDHSHFPISMLALASGKHVYVEKPLARTFYEAELLMQAALKRPNLATQVGNQGHSEANYFQFKAWMDAGIIKDVTAVTAHMNNEGHHHHHH”: the “soluble on expression in E. coli” value is “not soluble”.

Regarding “MSNGIVIIGSGFAARQLVKNIRKQDATIPLTLIAADSMDEYNKPDLSHVISQGQRADDLTRQTAGEFAEQFNLHLFPQTWVTDIDAEARVVKSQNNQWQYDKLVLATGASAFVPPVPGRELMLTLNSQQEYRACETQLRDARRVLIVGGGLIGSELAMDFCRAGKAVTLIDNAASILASLMPPEVSSRLQHRLTEMGVHLLLKSQLQGLEKTDSGIQATLDRQRNIEVDAVIAATGLRPETALARRAGLTINRGVCVDSYLQTSNTDIYALGDCAEINGQVLPFLQPIQLSAMVLAKNLLGNNTPLKLPAMLVKIKTPELPLHLAGETQRQDLRWQINTERQGMVARGVDDADQLRAFVVSEDRMKEAFGLLKTLPM”, the “soluble on expression in E. coli” value is reported as “not soluble”.

“MSFSADALEGGLSSLKLAADKYRSILNDEKTGNIRWRYGGPPIFDTVNKLFEEERTHVQWRYDNPPDFNSVNQLFEEGQTKVWPEGSLEETVQNAIKSWEMEFSHKIRLQDFKTINPEKFKLFVNGREGLSAEETLRLGSYNALLKNSLPEEFQYYKPEEESFESSHDAFRSALPRGFAWEILSVYSGPPVIAFKFRHWGYFEGTFKGHAPTGEMVQFLGLGVLKVDESLRAEEIEIYYDPGELFGGLLKGPPISETKTTDSGDNTAEKQSCPFTH”: the “soluble on expression in E. coli” value is recorded as “soluble”.

In the case of “MGSDKIHHHHHHMSTNLRRIQKIKGGSYIVSLPSDWVRENGLDVSREVEVFESSGIIKIRPKKDFNFERIIDFTDEETAEYLTSVYYMQGMTKITIQSKDVISRDVKDKIKMLQLELPGLNLKEESFNSITFEVDEEILKVQDSFFDFSNKALSILKDVTKIIETPREDMKQDLTSRCLALNSDYFKLIRSIALTVQRDDKYKLDVPVKDIILYAVASRDLGRFITHTRLLIGNIKQEDMKMRDQVLLLINTMENIITMFKTEDINMASRIRKNAHEILESVKSTSEANKELERMTGYALALMDDAVHKAVHL”, the “soluble on expression in E. coli” value was “not soluble”.

Take “MALTSDTQLNDIMRAAEAHKRIRGNLQKILKPGCSVREIIKYVEDSTRIMLHGEKNNGIGFPCGVSLNNVAAHFSLNPWNEDIILTKNDVLKIDFGTHSNGRIVDSAFSVSFDEKYTNLLLATKEATERGIKVIGIDMAVCEIGKEISEVFKSFEFEENGKMINIKPIWNLNGHSIDQYKIHAGISIPSINNGDYSRITPGFFAIETFASTGIGEIKDYGECSHFALASRPTTNKIYDKKNEEILNLIKKEFGTLPFSHQHLLYYTQNAKAAVQLLAARKFIDSYPPLVDIPKSYVAQFEHTLYITEKSKFNISKGDDYEGHHHHHH”: the “soluble on expression in E. coli” value is listed as “soluble”.

On to “MKIGIIGAMQQEVAILKDLIEDVQEVNQAGCTFYSGQIQGVDVVLLQSGIGKVSAALGTALLISQYAPDVVINTGSAGGFDASLNVGDVVISSEVRHHDADVTAFGYEIGQMAGQPAAFKADEKLMTVAEQALAQLPNTHAVRGLICTGDAFVCTAERQQFIRQHFPSVVAVEMEASAIAQTCHQFKVPFVVVRAISDVADKESPLSFEEFLPLAAKSSSAMVLKMVELLK”, for which the “soluble on expression in E. coli” value was “soluble”.

For the sequence “MALRDLSSSLSSSSSPELHVLAVDDSFVDRKVIERLLKISACKVTTVESGTRALQYLGLDGDNGSSGLKDLKVNLIVTDYSMPGLTGYELLKKIKESSALREIPVVIMSSENIQPRIEQCMIEGAEEFLLKPVKLADVKRLKELIMRGGEAEEGKTKKLSPKRILQNDIDSSPSSSSTSSSSSSHDVSSLDDDTPSSKRIKLESRG”, the “soluble on expression in E. coli” value is “not soluble”.

Consider “TIDEINKAISSSLSRERIMETAMAQVERITGCEFVAILQAENGGLKVMSSHASGLEIPAALRPGAPLSLAGCTAWTAFRTGRSASIADLADTRKPGTVSRTLLAAGIRSLLAIPLMSRDQVKGVLLLGDTEPDKFARGETFTIEKIASQMAVALENARLYEDMR”, for which the “soluble on expression in E. coli” value was “not soluble”.

In the case of “GSHMLKGQEFAPSHQQVYAPLRADGDKPRAHLTVVRQTPTQHFKNQFPALHWEHELGLAFTKNRMNYTNKFLLIPESGDYFIYSQVTFRGMTSESSEIRQAGRPNKPDSITVVITKVTDSYPEPTQLLMGTKSVSEVGSNWFQPIYLGAMFSLQEGDKLMVNVSDISLVDYTKEDKTFFGAFLL”, the “soluble on expression in E. coli” value is reported as “soluble”.
